Patent US20120040915A1 (MAYO FOUNDATION FOR MEDICAL EDUCATION AND RESEARCH, published 2012)
Ends that are not written are not given here. * marks the point of attachment. Biotin = O=C1N[C@H]2[C@H](CS[C@H]2CCCCC(=O)*)N1

T1: PDZ domain of GIPC/synectin displayed on T7 phage (UniProt O14908 133-213, limits assumed)
T1 construct: domain: PDZ domain; also called GIPC/Synectin-PDZ T7 phage; GIPC-PDZ
T1 sequence (looked up): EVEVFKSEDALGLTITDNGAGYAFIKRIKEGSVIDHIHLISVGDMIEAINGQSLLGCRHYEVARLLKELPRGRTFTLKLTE


Target: T1, PDZ domain of GIPC/synectin displayed …
Assay: phage ELISA, biotinylated peptide on Neutravidin plate, GIPC-PDZ T7 phage
Description: Neutravidin plates (Pierce) were coated in duplicate with 100 μL of 10 μg/mL solutions of N-terminal biotinylated peptides ([…] (SEQ ID NO: 3) (from GAIP), KKETEV (SEQ ID NO: 12) and KKETAV (SEQ ID NO: 13) (two sequences that bind PDZ3 of PSD-95 (21), and allowed to incubate 1-2 h at 37° C. (or overnight at 4° C.) with mild shaking. The unbound peptides were washed away three times with TBS (0.5% Tween-20)-TBST buffer. Blocking buffer was prepared by diluting BSA […] in TBS stock two-fold in dH2O (for a 5% BSA final concentration) and free biotin (1 mM). Alternatively, SuperBlock in PBS buffer (Pierce) with free biotin (1 mM) was used. The blocking buffer was added to each well and allowed to incubate 30-60 min at 37° C. with mild shaking. The blocking buffer was washed away with TBST by inverting the plate and tapping off the excess with each of the 4-5 washes. The GIPC/Synectin-PDZ T7 phage to be screened with the biotinylated peptides were prepared by adding phage stock (1 mL, 20 μL) derived from one of the eight plaques (discussed above) to freshly harvested BLT5403 E. coli at OD ˜1. Once lysis was observed, the cell debris was spun down and phage lysate was used in a plaque assay (as discussed above) to determine the titer (phage titer added to wells 5×10⁹ pfu). […] The substrate was added to each well, and the development was measured at 405 nm after 30 min, 1 h and 2 h.

| Binder | binding result |
| --- | --- |
| Biotin-KKETEV (Comparison peptide in the phage ELISA) [N-terminal biotinylated peptide KKETEV (SEQ ID NO: 12)] | no binding |
| Biotin-KKETAV (Comparison peptide in the phage ELISA) [N-terminal biotinylated peptide KKETAV (SEQ ID NO: 13)] | no binding |
